Experimental data: patent publication US5922685

Assays:
CD4 (mouse) = CD4 (mouse) (UniProt P06332)

Row | depletion of T cell subset in mice (CD8 (mouse)) [%] | depletion of T cell subset in mice (CD4 (mouse)) [%] | Substance
1 | > 90 | – | anti-CD8 mAb (clone 2.43) (antibody)
2 | – | > 90 | anti-CD4 mAb (clone GK1.5) (antibody)
